In US20230406948A1 (APEXIGEN, published 2023):
No end group written: not given here.

Experiments:
[1] = molecular target: T1, CD40 peptide, residues 125-144 of human CD40 (125PCPVGFFSNVSSAFEKCHPW144) (human); experiment: PEPSCAN-based ELISA on solid-phase peptides
T1 construct: It is the unmutated control peptide of the mutagenesis set
T1 peptide: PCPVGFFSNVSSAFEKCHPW
Description: The binding of antibody to each of the synthesized peptides was tested in a PEPSCAN-based ELISA. The peptide arrays were incubated with primary antibody solution (overnight at 4° C.). After washing, the peptide arrays were incubated with a 1/1000 dilution of an antibody peroxidase conjugate (SBA, cat.nr.2010-05) for one hour at 25° C. After washing, the peroxidase substrate 2,2′-azino-di-3-ethylbenzthiazoline sulfonate (ABTS) and 2 microliters/milliliter of 3 percent H₂O₂ were added. After one hour, the color development was measured. The color development was quantified with a charge coupled device (CCD)—camera and an image processing system.

[2] = molecular target: T2, CD40 CLIPS peptide, residues 84-102 of CD40 (84TCEEGWHCTSEACESCVLH102) (human, linker (positions not given here) via CLIPS template (1,3-bis(bromomethyl)benzene); also: cysteine side chains coupled to CLIPS template(s), solid-phase bound peptide of Pepscan array); experiment: PEPSCAN-based ELISA on solid-phase CLIPS peptides
T2 construct: It is the unmutated control peptide of the mutagenesis set
T2 peptide: TCEEGWHCTSEACESCVLH
Description: To reconstruct discontinuous epitopes of the target molecule a library of structured peptides was synthesized. This was done using Pepscan's proprietary Chemically Linked Peptides on Scaffolds (CLIPS™) technology (Pepscan Presto, Lelystad The Netherlands) (see e.g., Timmerman et al. (2007). J. Mol. Recognit. 20:283-99; Slootstra et al. (1996). Molecular Diversity 1: 87-96). CLIPS™ technology provides the ability to structure peptides into single loops, double-loops, triple loops, sheet-like folds, helix-like folds and combinations thereof. CLIPS™ templates are coupled to cysteine residues. For this experiment, the side-chains of multiple cysteines in the peptides were coupled to one or two CLIPS™ templates. […]
The binding of antibody to each of the synthesized peptides was tested in a PEPSCAN-based ELISA. […] After one hour, the color development was measured. The color development was quantified with a charge coupled device (CCD)—camera and an image processing system.

[3] = molecular target: T3, human CD40 on cells (native CD40 on Ramos cells, human B cells, human monocyte-derived dendritic cells); cell … (human, UniProt P25942 21-193); experiment: FACS on live Ramos cells, goat anti-human IgG (H+L) PE
T3 construct: Endogenous CD40 on human cells; also called native CD40 protein; CD40 positive cells
T3 sequence (P25942 21-193): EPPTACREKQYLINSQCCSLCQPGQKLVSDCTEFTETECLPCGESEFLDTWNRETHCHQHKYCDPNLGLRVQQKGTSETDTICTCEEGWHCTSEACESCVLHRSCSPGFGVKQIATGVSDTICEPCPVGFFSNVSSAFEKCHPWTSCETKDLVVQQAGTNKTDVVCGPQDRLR
Description: In another experiment, the ability of the CD40 antibodies to bind to native CD40 protein was determined by FACS analysis with live Ramos cells. Ramos cells were harvested and blocked with 1.5 ml blocking buffer (0.1% BSA/PBS) for 30 minutes. Antibodies at various concentrations were added to cells and incubated for 1 hour. After washing, 50 ul Goat-anti-human IgG (H+L) PE antibody at 1:1000 dilution in blocking solution was added and incubated for 30 minutes. Cells were then washed with PBS and were re-suspended with […] and analyzed by FACS. The antibodies tested were the 19-21 rabbit anti-CD40 agonist antibody, SGN-40 developed by Seattle Genetics and CP870893 from Pfizer.

[4] = molecular target: T4, mouse CD40 on mouse A20 cells (mouse, UniProt P27512 20-289); experiment: FACS on mouse A20 cells, goat anti-human IgG (H+L) R-PE
T4 construct: whole, on cells
T4 sequence (P27512 20-289): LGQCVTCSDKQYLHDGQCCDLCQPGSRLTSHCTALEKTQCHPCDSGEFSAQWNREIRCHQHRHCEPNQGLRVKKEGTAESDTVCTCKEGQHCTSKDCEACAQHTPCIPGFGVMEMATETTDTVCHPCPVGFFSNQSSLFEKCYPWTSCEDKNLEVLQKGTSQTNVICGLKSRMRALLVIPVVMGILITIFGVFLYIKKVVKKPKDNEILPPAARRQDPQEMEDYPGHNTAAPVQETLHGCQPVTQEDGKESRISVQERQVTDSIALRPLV
Description: Cross-reactivity of APX005 with mouse CD40 was further determined by FACS binding to a mouse A20 cell line which expresses mouse CD40. An aliquot of 0.5×10⁶ A20 cells was added to 96 well plates and incubated with 100 μl diluted rat anti-mouse CD40 antibody conjugated with PE, APX005 or IgG1 control antibodies. After washing, 100 μl Goat-anti human IgG (H+L) conjugated with R-PE (Southern Biotech CAT #2040-09) were added at 1:200 dilution in PBS to the sample and incubated for detection of APX005 and control human IgG1. A rat anti-mouse CD40 antibody conjugated with PE was used as positive control. Samples were re-suspended with 0.5 ml PBS and analyzed by FACS.

[5] = molecular target: T3, human CD40 on cells (native CD40 on …); experiment: FACS on Ramos cells, 4 h at 37 C, Alexa 488 goat anti-human IgG
Description: (§1) In order to assess the target mediated-internalization of APX005 for evaluating its impact on ADCC activity, Ramos cells were incubated with APX005 for 4 h at 37° C., a temperature permissive for internalization, or at 4° C. for 30 minutes, a temperature at which internalization is minimized. Cells were washed with staining buffer, followed by incubation with Alexa 488 labeled goat anti-human IgG for an additional 30 minutes at 4° C. FACS analysis was performed to examine the level of APX005 on the cell surface.

[6] = molecular target: T3, human CD40 on cells (native CD40 on …); experiment: FACS on Ramos cells, 30 min at 4 C, Alexa 488 goat anti-human IgG
Description: as §1

[7] = molecular target: T5, fusion protein of rabbit Fc and DR5 (UniProt O14763 56-182, limits assumed); experiment: direct ELISA, 1 ug/ml rabbit Fc-DR5 fusion coated, goat anti-human IgG-HRP
T5 construct: Neither the species nor the order of the parts is stated; not shown: rabbit Fc
T5 sequence (O14763 56-182 limits assumed): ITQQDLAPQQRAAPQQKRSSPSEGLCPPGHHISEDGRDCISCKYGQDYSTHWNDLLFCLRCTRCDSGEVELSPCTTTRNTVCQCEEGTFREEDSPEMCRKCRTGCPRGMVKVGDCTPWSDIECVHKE
Description: (§2) Binding selectivity of APX005 was assessed by direct ELISA to a panel of TNFR family proteins. A total of 1 μg/ml of fusion protein of rabbit Fc and CD40, RANK, TweakR, OX40, DR5 and 4-1 BB were coated on ELISA plates. Bound APX005 was detected using goat anti-human HRP-conjugated IgG.

[8] = molecular target: T6, fusion protein of rabbit Fc and TweakR (UniProt Q9NP84 28-80, limits assumed); experiment: direct ELISA, 1 ug/ml rabbit Fc-TweakR fusion coated, goat anti-human IgG-HRP
T6 construct: Neither the species nor the order of the parts is stated; not shown: rabbit Fc
Description: as §2

B1: APX005, humanized version of the R-8 rabbit anti-CD40 antibody (antibody, IgG1, V domains shown)
VH: QVQLVESGGGVVQPGRSLRLSCAASGFSFSSTYVCWVRQAPGKGLEWIACIYTGDGTNYSASWAKGRFTISKDSSKNTVYLQMNSLRAEDTAVYFCARPDITYGFAINFWGPGTLVTVSS
VL: DIQMTQSPSSLSASVGDRVTIKCQASQSISSRLAWYQQKPGKPPKLLIYRASTLASGVPSRFSGSGSGTDFTLTISSLQPEDVATYYCQCTGYGISWPIGGGTKVEIK
notes: also called humanized R-8; APX005 wild type
- binding result [1]: binds
- binding result [2]: binds
- EC50 [3]: 0.023 µg/mL
- binding result [4]: no binding (tested: 10000 ng/ml)
- EC50 (read off the curve) [5]: ~0.05 µg/mL
- EC50 (read off the curve) [6]: ~0.05 µg/mL
- binding result [7]: no binding
- binding result [8]: no binding
